Source: patent publication US20140235701, “NGF APTAMER AND APPLICATION THEREOF” (RIBOMIC INC., published 2014)

Key:
Conditions in all cases: tags: R&D Systems; chain copies: 2
[1] = target: T1, NGF (nerve growth factor) (Homo sapiens, UniProt P01138 P01138:122-241); test: SPR; neurite inhibition at 10 nM; no TF-1 inhibition
Description: The cells (2500 cells per well) were cultured for one day in an RPMI-1640 medium containing 2.5% horse serum and 1.25% fetal bovine serum in a 96 well flat-bottom plate coated with collagen type IV. […] Two days later, the cytoplasm and nuclei were stained using Cellomics Neurite Outgrowth Kit (manufactured by Thermo Scientific), and neurite length per cell was measured by Cellomics ArrayScan VTI (manufactured by Thermo Scientific). With the neurite length per cell obtained by the addition of NGF alone as inhibitory activity 0%, and that of the cell obtained by NGF free culture for 2 days as inhibitory activity 100%, the inhibitory activity of the aptamer was calculated from the neurite length per cell obtained by culturing with the addition of NGF and the aptamer in mixture.
Two NGF receptor (human TrkA and human p75) genes were introduced into TF-1 cells (ATCC Number: CRL-2003), which is a human erythroleukemic cell line, by using a retrovirus vector to give cells that highly express two receptors simultaneously and stably. The cells were suspended in an RPMI-1640 medium containing 20% fetal bovine serum, and seeded in a white 96 well flat-bottom plate at 1000 cells (50 μL) per well. […]

[2] = target: T1, NGF (nerve growth factor); test: cell_activity; neurite outgrowth inhibition; TF-1 IC50 6.924 nM
[3] = target: T1, NGF (nerve growth factor); test: cell_activity; neurite; TF-1 0.03
NT-4 (neurotrophin-4) = target: T2, NT-4 (neurotrophin-4) (Homo sapiens, UniProt P34130 P34130:81-210); test: cell_activity; TF-1
T2 sequence: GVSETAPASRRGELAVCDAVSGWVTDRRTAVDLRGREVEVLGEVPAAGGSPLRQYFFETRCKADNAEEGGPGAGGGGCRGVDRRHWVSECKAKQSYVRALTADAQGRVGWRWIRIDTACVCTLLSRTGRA

NT-3 (neurotrophin-3) = target: T3, NT-3 (neurotrophin-3) (Homo sapiens, UniProt P20783 P20783:139-257); test: cell_activity; TF-1
T3 sequence: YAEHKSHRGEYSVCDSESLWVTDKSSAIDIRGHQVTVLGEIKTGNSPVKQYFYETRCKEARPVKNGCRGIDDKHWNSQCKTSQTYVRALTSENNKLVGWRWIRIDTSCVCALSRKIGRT

[4] = target: T1, NGF (nerve growth factor); test: cell_activity; neurite; TF-1 0.046
[5] = target: T1, NGF (nerve growth factor); test: cell_activity; neurite; TF-1 0.030
[6] = target: T1, NGF (nerve growth factor); test: cell_activity; neurite; TF-1 0.027
[7] = target: T1, NGF (nerve growth factor); test: cell_activity; neurite; TF-1 0.022
[8] = target: T1, NGF (nerve growth factor); test: cell_activity; neurite; TF-1 0.025
[9] = target: T1, NGF (nerve growth factor); test: cell_activity; neurite; TF-1 0.033
[10] = target: T1, NGF (nerve growth factor); test: cell_activity; neurite; TF-1 0.021
[11] = target: T1, NGF (nerve growth factor); test: cell_activity; neurite; TF-1 0.037
[12] = target: T1, NGF (nerve growth factor); test: cell_activity; neurite; TF-1 0.043
[13] = target: T1, NGF (nerve growth factor); test: cell_activity; neurite; TF-1 0.051
[14] = target: T1, NGF (nerve growth factor); test: cell_activity; neurite; TF-1 0.075
[15] = target: T1, NGF (nerve growth factor); test: cell_activity; neurite; TF-1 0.035
[16] = target: T1, NGF (nerve growth factor); test: cell_activity; neurite; TF-1 0.036
[17] = target: T1, NGF (nerve growth factor); test: cell_activity; neurite; TF-1 0.071
[18] = target: T1, NGF (nerve growth factor); test: cell_activity; neurite; TF-1 0.084
Description: (§1) With the neurite length per cell obtained by the addition of NGF alone as inhibitory activity 0%, and that of the cell obtained by NGF free culture for 2 days as inhibitory activity 100%, the inhibitory activity of the aptamer was calculated from the neurite length per cell obtained by culturing with the addition of NGF and the aptamer in mixture.
(§2) Two NGF receptor (human TrkA and human p75) genes were introduced into TF-1 cells (ATCC Number: CRL-2003), which is a human erythroleukemic cell line, by using a retrovirus vector to give cells that highly express two receptors simultaneously and stably. The cells were suspended in an RPMI-1640 medium containing 20% fetal bovine serum, and seeded in a white 96 well flat-bottom plate at 1000 cells (50 μL) per well. […] With the amount of luminescence per well obtained by the addition of NGF alone and culture of the cells for 3 days as inhibitory activity 0%, and that of the well obtained by NGF free culture for 3 days as inhibitory activity 100%, the inhibitory activity of the aptamer was calculated from the amount of luminescence per well obtained by culturing with the addition of NGF and the aptamer in mixture.

[19] = target: T1, NGF (nerve growth factor); test: SPR; 145 mM NaCl, 5.4 mM KCl, 1.8 mM CaCl2, 0.8 mM MgCl2, 20 mM Tris pH 7.6; strong inhibition of NGF-receptor binding
[20] = target: T1, NGF (nerve growth factor); test: cell_activity; neurite; TF-1 0.979
[21] = target: T1, NGF (nerve growth factor); test: cell_activity; neurite; TF-1 0.178
[22] = target: T1, NGF (nerve growth factor); test: cell_activity; neurite; TF-1 0.018
Description: as §1, §2

T1 sequence (P01138 122-241, one chain of several): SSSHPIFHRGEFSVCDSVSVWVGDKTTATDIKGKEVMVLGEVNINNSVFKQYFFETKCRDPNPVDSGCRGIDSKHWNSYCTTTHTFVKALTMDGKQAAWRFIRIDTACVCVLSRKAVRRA

B1: SEQ ID NO: 100 (ssRNA)
RNA: GGGAGAACUUCGACCAGAAGACCAAACGGACUUUAUACCUCUGAGUCGCCUAUGCUCCUAUGUGCGCAUACAUGGAUCCUC
modifications: 2'-F C/U, dA, 2'-OH G
binding result [1]: binds

B2: SEQ ID NO: 99 (ssRNA)
RNA: GGGAGAACUUCGACCAGAAGUCCAAACGGGACUUUAUACCUCUGAGUCGCCUUUGCUCCUAUGUGCGCAUACAUGGAUCCUC
modifications: 2'-F C/U, dA, 2'-OH G
binding result [1]: binds

GGGUCCUGGUGAUAAGUUUCCGUCUUAUCACCUGUUACCC (ssRNA, 2'-F C and U; 2'-OH G; 2'-H (deoxy) A) [SEQ ID NO: 81]
IC50 [2]: 0.765 nM

GGGUCCUGGCUAAGAGUUUCCGUCUCGUAGUCUGUUACCC (ssRNA, 2'-OMe G (G8,G34 2'-OH), dA, 2'-F C/U; 5',3' idT) [SEQ ID NO: 80(1)]
IC50 [3]: 0.271 nM

GGGUCCUGGAUAAGAGUUUCCGUCUCGUAUCCUGUUACCC (ssRNA, as 82(1) except 2'-OMe U30) [SEQ ID NO: 82(11)]
IC50 (NT-4 (neurotrophin-4)): 3.42 nM
IC50 (NT-3 (neurotrophin-3)): 38.1 nM
IC50 [4]: 0.253 nM

GGGUCCUGGAUAAGAGUUUCCGUCUCGUAUCCUGUUACCC (ssRNA, as 82(1) except 2'-OMe U23) [SEQ ID NO: 82(7)]
IC50 (NT-4 (neurotrophin-4)): 3.74 nM
IC50 (NT-3 (neurotrophin-3)): < 30 nM
IC50 [5]: 0.143 nM

GGGUCCUGGAUAAGAGUUUCCGUCUCGUAUCCUGUUACCC (ssRNA, as 82(1) except 2'-OMe C31) [SEQ ID NO: 82(12)]
IC50 (NT-4 (neurotrophin-4)): < 3 nM
IC50 (NT-3 (neurotrophin-3)): 34.7 nM
IC50 [6]: 0.127 nM

GGGUCCUGGAUAAGAGUUUCCGUCUCGUAUCCUGUUACCC (ssRNA, as 82(25) except 2'-OMe A29) [SEQ ID NO: 82(46)]
IC50 [7]: 0.033 nM

GGGUCCUGGAUAAGAGUUUCCGUCUCGUAUCCUGUUACCC (ssRNA, as 82(1) except 2'-OMe C39) [SEQ ID NO: 82(17)]
IC50 (NT-4 (neurotrophin-4)): < 3 nM
IC50 (NT-3 (neurotrophin-3)): < 30 nM
IC50 [8]: 0.127 nM

GGGUCCUGGAUAAGAGUUUCCGUCUCGUAUCCUGUUACCC (ssRNA, as 82(1) except 2'-OMe U28) [SEQ ID NO: 82(10)]
IC50 (NT-4 (neurotrophin-4)): < 3 nM
IC50 (NT-3 (neurotrophin-3)): 35.3 nM
IC50 [9]: 0.128 nM

GGGUCCUGGAUAAGAGUUUCCGUCUCGUAUCCUGUUACCC (ssRNA, as 82(25) except 2'-OMe A15) [SEQ ID NO: 82(42)]
IC50 [10]: 0.037 nM

GGGUCCUGGAUAAGAGTUUCCGUCUCGUAUCCTGUUACCC (ssRNA, as 82(48) except dT17,dT33,dU36) [SEQ ID NO: 166]
IC50 [11]: 0.113 nM

GGGUCCUGGAUAAGAGUUUCCGUCUCGUAUCCUGUUACCC (ssRNA, as 82(1) except 2'-OMe U35) [SEQ ID NO: 82(15)]
IC50 (NT-4 (neurotrophin-4)): 8.35 nM
IC50 (NT-3 (neurotrophin-3)): < 30 nM
IC50 [12]: 0.127 nM

GGGUCCUGGAUAAGAGUUUCCGUCUCGUAUCCUGUUACCC (ssRNA, as 82(1) except 2'-OMe C6) [SEQ ID NO: 82(3)]
IC50 (NT-4 (neurotrophin-4)): 9.36 nM
IC50 (NT-3 (neurotrophin-3)): 42 nM
IC50 [13]: 0.255 nM

GGGUCCUGGAUAAGAGUUUCCGUCUCGUAUCCUGUUACCC (ssRNA, as 82(1) except 2'-OMe C20) [SEQ ID NO: 82(5)]
IC50 (NT-4 (neurotrophin-4)): < 3 nM
IC50 (NT-3 (neurotrophin-3)): 51.2 nM
IC50 [14]: 0.269 nM

GGGUCCUGGAUAAGAGTUUCCGUCUCGUAUCCTGUUACCC (ssRNA, as 82(48) except dT17,dT33) [SEQ ID NO: 167]
IC50 [11]: 0.128 nM

GGGUCCUGGAUAAGAGUUUCCGUCUCGUAUCCUGUUACCC (ssRNA, as 82(1) except 2'-OMe C26) [SEQ ID NO: 82(9)]
IC50 (NT-4 (neurotrophin-4)): < 3 nM
IC50 (NT-3 (neurotrophin-3)): 34.8 nM
IC50 [15]: 0.252 nM

GGGUCCUGGAUAAGAGUUUCCGUCUCGUAUCCUGUUACCC (ssRNA, as 82(1) except 2'-OMe U11) [SEQ ID NO: 82(4)]
IC50 (NT-4 (neurotrophin-4)): 3.37 nM
IC50 (NT-3 (neurotrophin-3)): 30.4 nM
IC50 [16]: 0.139 nM

GGGUCCUGGAUAAGAGUUUCCGUCUCGUAUCCUGUUACCC (ssRNA, as 82(25) except 2'-OMe A37) [SEQ ID NO: 82(47)]
IC50 [7]: 0.046 nM

GGGUCCUGGAUAAGAGUUUCCGUCUCGUAUCCUGUUACCC (ssRNA, as 82(1) except 2'-OMe U25) [SEQ ID NO: 82(8)]
IC50 [17]: 0.284 nM

GGGUCCUGGAUAAGAGUUUCCGUCUCGUAUCCUGUUACCC (ssRNA, as 82(1) except 2'-OMe U4,C6,U11,C21,U23,U28,U30,C31,C32,U35,C38-40) [SEQ ID NO: 82(24)]
IC50 (NT-3 (neurotrophin-3)): < 30 nM
IC50 [18]: < 0.1 nM

B3: SEQ ID NO: 1 (ssRNA)
RNA: GGGAGAACUUCGACCAGAAGUUGACGACCAACUCGUCUCUUAUGGAUUUACGUGAACCCGUAUGUGCGCAUACAUGGAUCCUC
modifications: 2'-F C and U; 2'-OH G; 2'-H (deoxy) A
binding result [19]: binds

GGGUCCUGUUCAAGAGUUUCCGUCUCGUGAACUGUUACCC (ssRNA, 2'-F C/U, dA, 2'-OH G) [SEQ ID NO: 88]
IC50 [20]: 0.572 nM

GGGUCCUGCUCAAGAGUUUCCGUCUCGUGGGCUGUUACCC (ssRNA, as 87(4) plus 2'-OMe A15,A37; no 5' idT) [SEQ ID NO: 87(5)]
IC50 [21]: 0.078 nM

B4: SEQ ID NO: 78(4) (printed 76(4) in sequence list) (ssRNA)
RNA: GGGUCCUGGCCAAGAGUUUCCGUCUCGUGGUCUGUUACCC
modifications: 2'-OMe G (G8,G34 2'-OH), dA, 2'-F C/U except 2'-OMe U4,C6,C10,C11,C21,U23,C26,U28,U31,C32,U35,C38-40; 5',3' idT
IC50 (NT-4 (neurotrophin-4)): < 100 nM
IC50 (NT-3 (neurotrophin-3)): 3 nM
IC50 [10]: 0.037 nM

GGGUCCUGGCCAAGAGUUUCCGUCUCGUGGUCUGUUACCC (ssRNA, 2'-OMe G (G8,G34 2'-OH), dA, 2'-F C/U; 5',3' idT) [SEQ ID NO: 78(1)]
IC50 [22]: 0.12 nM
